From US20240368250A1 (Ablynx, published 2024) come the findings set out here.

Assay [1] has as its target T1, Human serum albumin (HSA; Sigma-Aldrich Cat No. A8763) (human, UniProt P02768 25-609). Kind of assay: SPR Biacore 8K+, HSA on CM5 chip, pH 6.0, 1:1 fit.
In assay [2] the target is T1, Human serum albumin (HSA; Sigma-Aldrich …). Kind of assay: SPR Biacore 8K+, HSA on CM5 chip, pH 7.4, 1:1 fit.
Assay [3] has as its target T2, Mouse serum albumin (MSA; Albumin Bioscience Cat No. 2601) (mouse, UniProt P07724 25-608). The assay can be described thus: SPR Biacore 8K+, MSA on CM5 chip, pH 6.0, 1:1 fit. (In general: Surface plasmon resonance follows binding to a sensor surface in real time, without labels.)
Assay [4] addresses T2, Mouse serum albumin (MSA; Albumin …). Kind of assay: SPR Biacore 8K+, MSA on CM5 chip, pH 7.4, 1:1 fit.
For assay [5], the target named is T3, Human FcRn (biotinylated human FcRn) (human, UniProt P61769 21-119).
T3 construct: Biotinylated human FcRn captured on a Series S Sensor Chip SA; also called human neonatal Fc receptor; hFcRn
Kind of assay: SPR Biacore 8K+, biotinylated hFcRn on SA chip (~500-600 RU), pH 6.0, bivalent analyte fit.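 Also: analytes were Fc proteins binding to biotinylated human FcRn captured on a Series S streptavidin sensor chip.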

Assay [6] concerns the target T3, Human FcRn (biotinylated human FcRn). The assay can be described thus: SPR Biacore 8K+, biotinylated hFcRn on SA chip (~500-600 RU), pH 6.0, bivalent analyte fit (KD1).
For assay [7] the target is unchanged. The assay can be described thus: SPR Biacore 8K+, biotinylated hFcRn on SA chip (~500-600 RU), pH 6.0, bivalent analyte fit (ka1).
Assay [8] has the same target. Kind of assay: SPR Biacore 8K+, biotinylated hFcRn on SA chip (~500-600 RU), pH 6.0, bivalent analyte fit (kd1).

As a reminder, the koff is the rate constant with which the complex falls apart. Broadly, the kon is the second-order rate constant of association.

B1: TP016 (Fc fusion)
chain 1: DVQLVESGGGLVQPGGSLRLSCAASGLTFSTNPMYWYRQAPGKQRELVASISSRGITNYADSVKGRFTISRDNSKNTVYLQMNSLRPEDTAVYYCRLASLSSGTVYWGQGTLVTVSSDKTHTCPPCPAPEAAGGPSVFLFPPKPKDTLMASRTPEVTCVVVDVSQEDPEVQFNWYVDGVEVHNAKTKPREEQFNSTYRVVSVLTVLAQDWLNGKEYKCKVSNKGLPSSIEKTISKAKGQPREPQVYTLPPCQEEMTKNQVSLWCLVKGFYPSDIAVEWESNGQPENNYKTTPPVLDSDGSFFLYSKLTVDKSRWQEGNVFSCSVMHEALHNAYTQKSLSLSLG
chain 2: DVQLVESGGGVVQPGGSLRLSCAASGFTFRSFGMSWVRQAPGKGPEWVSSISGSGSDTLYADSVKGRFTISRDNSKNTLYLQMNSLRPEDTALYYCTIGGSLSRSSQGTLVTVSSDKTHTCPPCPAPEAAGGPSVFLFPPKPKDTLMASRTPEVTCVVVDVSQEDPEVQFNWYVDGVEVHNAKTKPREEQFNSTYRVVSVLTVLAQDWLNGKEYKCKVSNKGLPSSIEKTISKAKGQPREPQVCTLPPSQEEMTKNQVSLSCAVKGFYPSDIAVEWESNGQPENNYKTTPPVLDSDGSFFLVSKLTVDKSRWQEGNVFSCSVMHEALHNAYTQKSLSLSLG
Consider B1, for which the Kd in assay [1] was 3.7 nM; in assay [2], 9.3 nM; in assay [3], 22 nM; in assay [4], 35 nM. Further, the koff was found to be 0.0004 s⁻¹ in assay [1], 0.00057 s⁻¹ in assay [2], 0.0038 s⁻¹ in assay [3] and 0.0042 s⁻¹ in assay [4]. Moreover, the kon came out at 110000 M⁻¹ s⁻¹ in assay [1], 61000 M⁻¹ s⁻¹ in assay [2], 170000 M⁻¹ s⁻¹ in assay [3] and 120000 M⁻¹ s⁻¹ in assay [4].

B2: TP019 (Fc fusion)
chain 1: DVQLVESGGGLVQPGGSLRLSCAASGLTFSTNPMYWYRQAPGKQRELVASISSRGITNYADSVKGRFTISRDNSKNTVYLQMNSLRPEDTAVYYCRLASLSSGTVYWGQGTLVTVSSDKTHTCPPCPAPEAAGGPSVFLFPPKPKDTLMASRTPEVTCVVVDVSQEDPEVQFNWYVDGVEVHNAKTKPREEQFNSTYRVVSVLTVLAQDWLNGKEYKCKVSNKGLPSSIEKTISKAKGQPREPQVYTLPPCQEEMTKNQVSLWCLVKGFYPSDIAVEWESNGQPENNYKTTPPVLDSDGSFFLYSKLTVDKSRWQEGNVFSCSVMHEALHNAYTQKSLSLSLGGGGGSGGGGSGGGGSGGGGSGGGGSGGGGSGGGGSEVQLVESGGGVVQPGGSLRLSCAASGFTFRSFGMSWVRQAPGKGPEWVSSISGSGSDTLYADSVKGRFTISRDNSKNTLYLQMNSLRPEDTALYYCTIGGSLSRSSQGTLVTVSS
chain 2: DKTHTCPPCPAPEAAGGPSVFLFPPKPKDTLMASRTPEVTCVVVDVSQEDPEVQFNWYVDGVEVHNAKTKPREEQFNSTYRVVSVLTVLAQDWLNGKEYKCKVSNKGLPSSIEKTISKAKGQPREPQVCTLPPSQEEMTKNQVSLSCAVKGFYPSDIAVEWESNGQPENNYKTTPPVLDSDGSFFLVSKLTVDKSRWQEGNVFSCSVMHEALHNAYTQKSLSLSLG
For B2, the Kd in assay [1] stood at 26 nM; in assay [2], 51 nM; in assay [3] it was 50 nM; in assay [4] it was 50 nM. Also, the koff in assay [1] came to 0.0016 s⁻¹; in assay [2], 0.0019 s⁻¹; in assay [3], 0.5 s⁻¹; in assay [4] it was 0.5 s⁻¹. The kon is 61000 M⁻¹ s⁻¹ in assay [1], 36000 M⁻¹ s⁻¹ in assay [2], 1e+07 M⁻¹ s⁻¹ in assay [3] and 1e+07 M⁻¹ s⁻¹ in assay [4].

B3: TPP-66143 (Fc fusion)
chain 1: DVQLVESGGGVVQAGGSLSISCAASGGSLSNYVLGWFRQAPGKEREFVAAINWRGDITIGPPNVEGRFTISRDNAKNTGYLQMNSLAPDDTALYYCGAGTPLNPGAYIYDWSYDYWGRGTLVTVSSDKTHTCPPCPAPEAAGGPSVFLFPPKPKDTLMISRTPEVTCVVVDVSQEDPEVQFNWYVDGVEVHNAKTKPREEQFNSTYRVVSVLTVLHQDWLNGKEYKCKVSNKGLPSSIEKTISKAKGQPREPQVYTLPPCQEEMTKNQVSLWCLVKGFYPSDIAVEWESNGQPENNYKTTPPVLDSDGSFFLYSKLTVDKSRWQEGNVFSCSVMHEALHNHYTQKSLSLSLGGGGGSGGGGSGGGGSGGGGSGGGGSGGGGSGGGGSEVQLVESGGGVVQAGGSLSISCAASGGSLSNYVLGWFRQAPGKEREFVAAINWRGDITIGPPNVEGRFTISRDNAKNTGYLQMNSLAPDDTALYYCGAGTPLNPGAYIYDWSYDYWGRGTLVTVSSA
chain 2: DVQLVESGGGVVQAGGSLSISCAASGGSLSNYVLGWFRQAPGKEREFVAAINWRGDITIGPPNVEGRFTISRDNAKNTGYLQMNSLAPDDTALYYCGAGTPLNPGAYIYDWSYDYWGRGTLVTVSSDKTHTCPPCPAPEAAGGPSVFLFPPKPKDTLMISRTPEVTCVVVDVSQEDPEVQFNWYVDGVEVHNAKTKPREEQFNSTYRVVSVLTVLHQDWLNGKEYKCKVSNKGLPSSIEKTISKAKGQPREPQVCTLPPSQEEMTKNQVSLSCAVKGFYPSDIAVEWESNGQPENNYKTTPPVLDSDGSFFLVSKLTVDKSRWQEGNVFSCSVMHEALHNRFTQKSLSLSLG
notes: IgG4 FALA Fc knob-in-hole (hole chain H435R, Y436F) with three irrelevant ISVDs; control; also called control ISVD-Fc polypeptide
As to B3, in assay [5], the KD2 came to 4.24 M, the ka2 is 3.22e-05 1/RUs and the kd2 was determined as 0.000136 s⁻¹. In assay [6], this molecule returned a Kd of 941 nM. Also, the kon in assay [7] came to 82800 M⁻¹ s⁻¹. The molecule also yielded a koff in assay [8] of 0.0779 s⁻¹.

B4: TPP-66176 (Fc fusion)
chain: DVQLVESGGGVVQAGGSLSISCAASGGSLSNYVLGWFRQAPGKEREFVAAINWRGDITIGPPNVEGRFTISRDNAKNTGYLQMNSLAPDDTALYYCGAGTPLNPGAYIYDWSYDYWGRGTLVTVSSDKTHTCPSCPAPEAAGGPSVFLFPPKPKDTLMISRTPEVTCVVVDVSQEDPEVQFNWYVDGVEVHNAKTKPREEQFNSTYRVVSVLTVLHQDWLNGKEYKCKVSNKGLPSSIEKTISKAKGQPREPQVYTLPPSQEEMTKNQVSLTCLVKGFYPSDIAVEWESNGQPENNYKTTPPVLDSDGSFFLYSKLTVDKSRWQEGNVFSCSVMHEALHNHYTQKSLSLSLGGGGGSGGGGSGGGGSGGGGSGGGGSGGGGSGGGGSEVQLVESGGGVVQAGGSLSISCAASGGSLSNYVLGWFRQAPGKEREFVAAINWRGDITIGPPNVEGRFTISRDNAKNTGYLQMNSLAPDDTALYYCGAGTPLNPGAYIYDWSYDYWGRGTLVTVSSA
notes: Symmetrical IgG4 FALA Fc fusion without knob-in-hole mutations, four irrelevant ISVDs; control; also called symmetrical ISVD-Fc polypeptide
For the molecule B4, in assay [5], the KD2 was found to be 4.53 M, the ka2 was 3.79e-05 1/RUs and the kd2 was 0.000172 s⁻¹. The molecule also showed a Kd in assay [6] of 1260 nM. Further, the kon in assay [7] is 62900 M⁻¹ s⁻¹. This molecule also yielded a koff in assay [8] of 0.0794 s⁻¹.

B5: TPP-66175 (Fc fusion)
chain 1: DVQLVESGGGVVQAGGSLSISCAASGGSLSNYVLGWFRQAPGKEREFVAAINWRGDITIGPPNVEGRFTISRDNAKNTGYLQMNSLAPDDTALYYCGAGTPLNPGAYIYDWSYDYWGRGTLVTVSSDKTHTCPPCPAPEAAGGPSVFLFPPKPKDTLYITREPEVTCVVVDVSQEDPEVQFNWYVDGVEVHNAKTKPREEQFNSTYRVVSVLTVLHQDWLNGKEYKCKVSNKGLPSSIEKTISKAKGQPREPQVYTLPPCQEEMTKNQVSLWCLVKGFYPSDIAVEWESNGQPENNYKTTPPVLDSDGSFFLYSKLTVDKSRWQEGNVFSCSVMHEALHNHYTQKSLSLSLGGGGGSGGGGSGGGGSGGGGSGGGGSGGGGSGGGGSEVQLVESGGGVVQAGGSLSISCAASGGSLSNYVLGWFRQAPGKEREFVAAINWRGDITIGPPNVEGRFTISRDNAKNTGYLQMNSLAPDDTALYYCGAGTPLNPGAYIYDWSYDYWGRGTLVTVSSA
chain 2: DVQLVESGGGVVQAGGSLSISCAASGGSLSNYVLGWFRQAPGKEREFVAAINWRGDITIGPPNVEGRFTISRDNAKNTGYLQMNSLAPDDTALYYCGAGTPLNPGAYIYDWSYDYWGRGTLVTVSSDKTHTCPPCPAPEAAGGPSVFLFPPKPKDTLYITREPEVTCVVVDVSQEDPEVQFNWYVDGVEVHNAKTKPREEQFNSTYRVVSVLTVLHQDWLNGKEYKCKVSNKGLPSSIEKTISKAKGQPREPQVCTLPPSQEEMTKNQVSLSCAVKGFYPSDIAVEWESNGQPENNYKTTPPVLDSDGSFFLVSKLTVDKSRWQEGNVFSCSVMHEALHNRFTQKSLSLSLG
notes: IgG4 FALA Fc (YTE) knob-in-hole with three irrelevant ISVDs; control; also called control ISVD-Fc(YTE) polypeptide
Turning to B5, in assay [5], the KD2 worked out at 3.98 M, the ka2 is 0.0232 1/RUs and the kd2 turned out to be 0.0922 s⁻¹. The Kd in assay [6] turned out to be 179 nM. Further, the kon in assay [7] turned out to be 93300 M⁻¹ s⁻¹. The molecule further had a koff in assay [8] of 0.0167 s⁻¹.
